Reference: patent US20240336661A1, “PEPTIDES DERIVED FROM RUMINOCOCCUS TORQUES” (University of Copenhagen, priority 2021, published 2024)

Key:
[1] = tested on: MLO-Y4 (murine long bone osteocyte-Y4) cell line; experiment: Sclerostin mRNA expression in MLO-Y4 cells; format: cell-based, mouse; conditions: for sclerostin expression levels: 150 nM, 24 h
Procedure: FIG. 11. […] The cells were incubated with FreeStyle293 medium for 4 hr and treated for 16 hr with indicated concentrations of RUCILP2 or irisin (Upper panel), with the addition at pretreatment with vehicle (phosphate-buffered saline) or 10 μM of integrin inhibitor cRGDyK for 10 min (Lower panel). Data are represented as mean±SEM, n=3 wells/group. Significant differences between two groups were evaluated using a two-tailed, unpaired Student's t test. Upper panel, *, p<0.05, **, p<0.01, #, p<0.05, ##, p<0.01, when compared with the blank group. Lower panel, *, p<0.05, when compared with the vehicle group.
MLO-Y4 cells were donated by Prof Moustapha Kassem from the University of Southern Denmark. The cells were seeded on type I collagen-coated 6-well plates under Minimum Essential Medium (α-MEM from Fisher Scientific, #15430584), supplemented with 2.5% Fetal Bovine Serum (FBS from Fisher Scientific, #11550356), 2.5% calf serum (Hyclone, SH30072.03), and 1% Penicillin-Streptomycin (Fisher Scientific, #11548876). Cell cultures were maintained in a humidified chamber with 5% CO2 at 37° C., and culture media were changed every 2-3 days.
At 60% confluence, medium was switched to FreeStyle293 Expression medium after washing with warm PBS. After 4 hours incubation, the cells were treated with recombinant RUCILP2 or commercial recombinant irisin (Sigma, #SRP8039-10UG and Phoenix pharmaceuticals, #067-29A) or saline for 24 h. For integrin inhibitor treatment, cells were treated with 10 μM of CycloRGDyK (Selleckchem, #S7844) for 10 minutes and washed with PBS before treated with recombinant RUCILP2 or commercial recombinant irisin or saline. After treatments, MLO-Y4 cells were harvested for qRT-PCR analysis of the mRNA level of sclerostin as described in gene expression analysis. […]

mouse 3T3-L1 fibroblasts = experiment: Gene expression in 3T3-L1 fibroblasts (q-PCR); format: cell-based; conditions: dose-response
Procedure: 3T3-L1 cells (a murine fibroblast cell line) were split onto 12-well plates and grown to confluence before inducing differentiation by treatment with 86 nM insulin, 0.1 μM dexamethasone, and 250 μM methyl isobutylxanthine. Two days after induction, cells were switched to an inducing medium in the presence of recombinant RUCILPs, or commercial recombinant irisin (Sigma, #SRP8039-10UG and Phoenix pharmaceuticals, #067-29A), or phosphate buffered saline (PBS) for two days. Subsequently, cells were maintained in 86 nM insulin in the presence of indicated concentrations of recombinant RUCILPs, 21-AABP1, commercial recombinant irisin, or PBS for four days with medium change every other day for 6 days. Cells were then harvested for q-PCR analysis as described in standard protocol for gene expression analysis.
(§1) Total RNA from cells or tissues was extracted according to the instructions provided by manufacturer of RNeasy mini kit (Qiagen) using QIAzol lysis reagent (Qiagen), followed by measurements of RNA purities and concentrations by NanoDrop 2000 spectrophotometer (Thermo Scientific). A total of 1 μg of RNA was used for the reverse transcription to cDNA using the iScript™ Select cDNA Synthesis Kit (Bio-Rad Laboratories). The samples were subjected to real-time PCR using the LC480 system (Roche Diagnostics) after premixing with Precision®PLUS Master Mix (Primer Design). For each indicated gene, samples were run in duplicate in a 384-well plate and ΔΔCt method was used for quantifying the expressions after normalization to the housekeeping Rpl36 or GAPDH gene.
Firstly, we tested the dose-response effects of RUCILPs on gene expression in mouse fibroblasts (3T3-L1), mouse […] (MLO-Y4), and mouse myoblasts (C2C12). To estimate effect on adipocyte browning, we measured expression of Ucp1, Prdm16, Pgc1a, Dio2 and Cox2, and expression of AdipoQ was measured as a marker of white adipocytes. As a marker of bone formation, we measured expression of Sclerostin; and markers of myotube formation included expression of Heyl, Sox3, and Stat3.

[2] = tested on: subcutaneous white adipose tissue (SWAT) and liver; experiment: Intraperitoneal RUCILP1 or RUCILP2 for 7 days in mice, gene expression in SWAT and liver; format: in vivo, mouse; conditions: 1 mg/kg i.p.
Procedure: FIG. 46. Effects of RUCILP1 and RUCILP2 on gene expression in vivo. Recombinant RUCILPs were daily injected into peritoneum of 8-week-old wild type C57BL/6N mice at a concentration of 1 mg/kg for one week. The mRNA levels of indicated genes in subcutaneous white adipose tissue (SWAT) and liver were analyzed by qRT-PCR. n=6 animals per group. * indicates p<0.05 using one-way ANOVA followed by Dunnett post hoc correction. Data are expressed as mean±SEM.
For the RUCILPs intervention study, male mice (n=6 per group, 8 weeks of age) fed with standard chow diet were treated daily with an in intraperitoneal injection of 1 mg/kg recombinant RUCILP1, RUCILP2, or saline, respectively, for a week. All animals were then sacrificed and subcutaneous fat pads and liver were collected. The mRNA levels of indicated genes in subcutaneous fat and liver were analyzed by qRT-PCR as described in standard protocol for gene expression analysis.
as §1

B1: RUCILP2: 87 amino acid irisin-like polypeptide cleaved from the Ruminococcus torques FNDC5-like protein RUMTOR_00181; recombinant, 6-His-tagged from E. coli (protein)
chain: APVDVKVSEITETSAKASWKNAADGKEAAGYNVYVDGVKLNKELLTEASCGLTNLKAETTYFVEVTAVDAAGNESVKSEKVTFKTLK
modifications: 6-His tag; Ruminococcus torques
notes: 87 amino acid irisin-like polypeptide cleaved from the Ruminococcus torques FNDC5-like protein RUMTOR_00181; recombinant, 6-His-tagged from E. coli
- sclerostin expression levels [1]: increase
- sclerostin expression ([1]; MLO-Y4 cells, treated 16 hr): stimulates sclerostin expression
- Adiponectin expression (mouse 3T3-L1 fibroblasts): down-regulating
- markers of adipocyte browning (Ucp1, Prdm16, Pgc1a, Dio2, Cox2) (mouse 3T3-L1 fibroblasts): up-regulate
- gene markers for white adipocytes AdipoQ and Ppara in SWAT [2]: diminishes expression
- genes involved in gluconeogenesis G6pase and Pepck1 in liver [2]: lowered expression
- thermogenic markers Ucp1, Prdm16, Dio2 in SWAT [2]: comparable effects

B2: RUCILP1: 88 amino acid FNIII domain polypeptide of RUMTOR_00181 from Ruminococcus torques (protein)
chain: APVDVKVSEVTETSAKVSWKNAADGKEAAGYNVYVDGTKVNEELIAETTYNVSSLKDGTTYSVEVTAVDAAGEESAKSEKVEFTTVKK
modifications: Ruminococcus torques
notes: 88 amino acid FNIII domain polypeptide of RUMTOR_00181 from Ruminococcus torques
- sclerostin expression levels [1]: increase
- Adiponectin expression (mouse 3T3-L1 fibroblasts): down-regulating
- markers of adipocyte browning (Ucp1, Prdm16, Pgc1a, Dio2, Cox2) (mouse 3T3-L1 fibroblasts): up-regulate
- gene markers for white adipocytes AdipoQ and Ppara in SWAT [2]: did not find significant reduction
- genes involved in gluconeogenesis G6pase and Pepck1 in liver [2]: no effect
- thermogenic markers Ucp1, Prdm16, Dio2 in SWAT [2]: comparable effects
